In article PMC12207370, “Macrocyclic Peptide Probes for Immunomodulatory Protein CD59: Potent Modulators of Bacterial Toxin Activity and Antibody‐Dependent Cytotoxicity” (Angewandte Chemie (International Ed. in English), 2025):

Target: T1, biotinylated CD59 (Homo sapiens, UniProt P13987)
T1 construct: Recombinant soluble human CD59 with an additional C-terminal cysteine residue
T1 sequence (P13987 26-102 limits assumed): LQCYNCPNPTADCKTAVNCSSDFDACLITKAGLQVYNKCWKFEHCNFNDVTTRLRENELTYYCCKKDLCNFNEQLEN
Assay: mRNA-display cyclic peptide screen against CD59-biotin, NGS abundance after 6th selection round
Details: for Counts (raw counts for peptide sequence), Seq I: NGS sample Seq I; for Counts (raw counts for peptide sequence), Seq I / Counts (raw counts for peptide sequence), Seq II / Counts Seq I / Counts Seq II: sheet R6 (6th selection round); for Counts (raw counts for peptide sequence), Seq II: NGS sample Seq II; for Percentage of the pool, averaged across the two sequencing samples: average of Seq I and Seq II; for Percentage of the pool, averaged across the two sequencing samples / Percentage of the pool, Seq I / Percentage of the pool, Seq II / Percentage Seq I / Percentage Seq II / Percentage Average: sheet R6; for Percentage of the pool, Seq I: counts normalised by total counts of NGS sample Seq I; for Percentage of the pool, Seq II: counts normalised by total counts of NGS sample Seq II; for Percentage Seq I: counts normalised by total counts of sample Seq I; for Percentage Seq I / Percentage Seq II: percentage of the pool; for Percentage Seq II: counts normalised by total counts of sample Seq II; for Percentage Average: percentage of the pool averaged across the two sequencing samples; for Counts Seq I / Counts Seq II: raw NGS counts of peptide sequence; for Counts Seq I: sequencing sample Seq I; for Counts Seq II: sequencing sample Seq II
Outline: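 Peptide–mRNA fusions were made by in vitro translation with a customised PURE express kit. The kit lacked release factor 1 and methionine and was supplemented with […] initiator tRNA carrying N-chloroacetyl-d-tyrosine. Thioether macrocycles were formed, then enriched and amplified over iterative rounds on CD59-biotin immobilised on streptavidin beads. NGS read counts per sequence were recorded after the 6th selection round.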

| Sequence | Counts (raw counts for peptide sequence), Seq I | Counts (raw counts for peptide sequence), Seq II | Percentage of the pool, averaged across the two sequencing samples | Percentage of the pool, Seq I | Percentage of the pool, Seq II | Percentage Seq I | Percentage Seq II | Percentage Average | Counts Seq I | Counts Seq II |
| --- | --- | --- | --- | --- | --- | --- | --- | --- | --- | --- |
| CFTLRVLDVSAV | 100 | 5 | 0.017% | 0.023% | 0.012% |  |  |  |  |  |
| FRGRNDICTH | 73 | 8 | 0.018% | 0.017% | 0.019% |  |  |  |  |  |
| FIRGNSTSVLC | 36 | 5 | 0.010% | 0.008% | 0.012% |  |  |  |  |  |
| CFARRLSASSGT |  |  |  |  |  | 0.024% | 0.028% | 0.026% | 106 | 12 |
| WIRGSRWWTQS |  |  |  |  |  | 0.033% | 0.035% | 0.034% | 146 | 15 |
| DPWCTPFSNVT |  |  |  |  |  | 0.186% | 0.209% | 0.198% | 815 | 90 |
| WIRGSRFYRVI |  |  |  |  |  | 0.387% | 0.334% | 0.360% | 1692 | 144 |
| CYGGRTFIYSWS | 46 | 8 | 0.015% | 0.011% | 0.019% |  |  |  |  |  |
| HVLGNRSFTRG |  |  |  |  |  | 0.071% | 0.084% | 0.077% | 312 | 36 |
| YLFGDRFSVRG |  |  |  |  |  | 0.094% | 0.100% | 0.097% | 412 | 43 |
| VARGSKDWRWS | 41 | 6 | 0.012% | 0.009% | 0.014% |  |  |  |  |  |
| CYTAGSASWSRG |  |  |  |  |  | 0.726% | 0.680% | 0.703% | 3176 | 293 |
| AKGNGHFAYG |  |  |  |  |  | 0.144% | 0.114% | 0.129% | 629 | 49 |
| CFLKRDRSASI | 56 | 7 | 0.015% | 0.013% | 0.016% |  |  |  |  |  |
| WVYGSSTFRYQ |  |  |  |  |  | 0.030% | 0.030% | 0.030% | 133 | 13 |
| CYGGRTLIYAWS |  |  |  |  |  | 0.028% | 0.019% | 0.023% | 121 | 8 |
| CYGNSHASWG |  |  |  |  |  | 0.483% | 0.469% | 0.476% | 2115 | 202 |

| Sequence | Counts (raw counts for peptide sequence), Seq I | Counts (raw counts for peptide sequence), Seq II | Percentage of the pool, averaged across the two sequencing samples | Percentage of the pool, Seq I | Percentage of the pool, Seq II | Percentage Seq I | Percentage Seq II | Percentage Average | Counts Seq I | Counts Seq II |
| --- | --- | --- | --- | --- | --- | --- | --- | --- | --- | --- |
| IARGGRHFSSG | 46 | 4 | 0.010% | 0.011% | 0.009% |  |  |  |  |  |
| YVFWSRTHTYG |  |  |  |  |  | 0.172% | 0.165% | 0.168% | 751 | 71 |
| HVFGNGSFTRG |  |  |  |  |  | 0.031% | 0.035% | 0.033% | 137 | 15 |
| CFYQRTLGTTAS |  |  |  |  |  | 0.018% | 0.021% | 0.019% | 79 | 9 |
| DYNRIVWGRGNAAAAAAARTGGG | 89 | 6 | 0.017% | 0.020% | 0.014% |  |  |  |  |  |
| LWGTHSYIYYRP |  |  |  |  |  | 0.482% | 0.490% | 0.486% | 2109 | 211 |
| VLCHRWHVGSHR | 54 | 7 | 0.014% | 0.012% | 0.016% |  |  |  |  |  |
| QWNRWYGIDER |  |  |  |  |  | 0.021% | 0.023% | 0.022% | 94 | 10 |
| RCWASGSRDWR | 95 | 6 | 0.018% | 0.022% | 0.014% |  |  |  |  |  |
| CYGDRTFIYAWS | 53 | 10 | 0.018% | 0.012% | 0.023% |  |  |  |  |  |
| FVTGNRNHTRG |  |  |  |  |  | 0.032% | 0.028% | 0.030% | 142 | 12 |
| CSSLRARGWI | 75 | 3 | 0.012% | 0.017% | 0.007% |  |  |  |  |  |
| FVRGGLYSVLG |  |  |  |  |  | 0.020% | 0.019% | 0.019% | 86 | 8 |
| LWGTHSYTYYRP | 60 | 4 | 0.011% | 0.014% | 0.009% |  |  |  |  |  |
| WRDRFDQCVL |  |  |  |  |  | 2.463% | 2.351% | 2.407% | 10776 | 1013 |
| TFRSRTSCGAV | 51 | 7 | 0.014% | 0.012% | 0.016% |  |  |  |  |  |
| STRRDRLGLTC | 57 | 9 | 0.017% | 0.013% | 0.021% |  |  |  |  |  |
